Measured values taken from patent US20230287362.

Target: T1, E. cloacae His6-CD-NTase fused at its C terminus to GFP
T1 chain: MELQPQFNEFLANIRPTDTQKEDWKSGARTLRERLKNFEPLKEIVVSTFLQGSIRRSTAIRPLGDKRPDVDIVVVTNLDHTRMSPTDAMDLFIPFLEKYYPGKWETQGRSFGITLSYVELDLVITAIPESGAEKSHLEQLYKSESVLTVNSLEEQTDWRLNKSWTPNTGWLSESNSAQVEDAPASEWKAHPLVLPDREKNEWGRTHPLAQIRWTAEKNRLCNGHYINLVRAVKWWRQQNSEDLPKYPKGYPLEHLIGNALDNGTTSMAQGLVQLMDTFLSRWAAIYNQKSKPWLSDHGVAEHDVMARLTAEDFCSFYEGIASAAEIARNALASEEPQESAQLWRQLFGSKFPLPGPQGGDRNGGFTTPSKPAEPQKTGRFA

B1: E. cloacae Cap3, residues 17-180 of the annotated gene (protein)
chain: MSIKDVTFSSEGALYTIVISSSTIEQMVSECLKAGVNETGGILIGSYSEDSSTAMIVEATTRPADSLAGRTTFQRGVRGLRPLLHARWKTGLYYVGEWHFHPGGSPEPSGDDFRSMTSIAANSDYQCLEPVMIILGGDPAGSYSLSASVSPRGDAPIRLREVLI
cleavage of the CD-NTase-GFP model substrate (SDS-PAGE, mass spectrometry): Both Cap3 proteins precisely cleaved the CD-NTase-GFP fusions at the CD-NTase C terminus
